From PMC4581966 (Cytokine & growth factor reviews, 2015)
Each block holds one binder with its values, some of them ahead of it.

How the values were obtained:
[1] = biological target: T1, Ebi3 subunit of mouse recombinant IL-35 (rIL-35) (mouse), O35228; test: SEC; details: remark: other sources report otherwise
T1 chain: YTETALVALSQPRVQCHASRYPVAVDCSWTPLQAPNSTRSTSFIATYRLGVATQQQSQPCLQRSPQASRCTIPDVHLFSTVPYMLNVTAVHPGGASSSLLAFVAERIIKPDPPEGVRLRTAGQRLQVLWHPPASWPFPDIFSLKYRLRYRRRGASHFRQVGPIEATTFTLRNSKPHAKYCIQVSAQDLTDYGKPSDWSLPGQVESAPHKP

SEC = biological target: the molecule itself; test: SEC

stoichiometry N [1]: 2
B1: Ebi3 subunit of mouse recombinant IL-35 (rIL-35), O35228 19-228 (natural protein)
chain: T1 chain

B2: IL-12p35 subunit of mouse recombinant IL-35 (rIL-35) (natural protein, UniProt P43431 23-215, looked up)
chain: RVIPVSGPARCLSQSRNLLKTTDDMVKTAREKLKHYSCTAEDIDHEDITRDQTSTLKTCLPLELHKNESCLATRETSSTTRGSCLPPQKTSLMMTLCLGSIYEDLKMYQTEFQAINAALQNHNHQQIILDKGMLVAIDELMQSLNHNGETLRQKPPVGEADPYRVKMKLCILLHAFSTRVVTINRVMGYLSSA
stoichiometry N (SEC): 2
